Data taken from patent US11045456.

How the values were obtained:
[1] = molecular target: nuclear factor-κB (NF-κB) p65 subunit, human, wild type (UniProt Q04206)
[2] = molecular target: p65 phosphorylation-deficient mutant S276A (UniProt Q04206)
p65 mutant S536A = p65 mutant S536A (UniProt Q04206)
p65 mutant S536A, sequence (Q04206 whole entry S536A): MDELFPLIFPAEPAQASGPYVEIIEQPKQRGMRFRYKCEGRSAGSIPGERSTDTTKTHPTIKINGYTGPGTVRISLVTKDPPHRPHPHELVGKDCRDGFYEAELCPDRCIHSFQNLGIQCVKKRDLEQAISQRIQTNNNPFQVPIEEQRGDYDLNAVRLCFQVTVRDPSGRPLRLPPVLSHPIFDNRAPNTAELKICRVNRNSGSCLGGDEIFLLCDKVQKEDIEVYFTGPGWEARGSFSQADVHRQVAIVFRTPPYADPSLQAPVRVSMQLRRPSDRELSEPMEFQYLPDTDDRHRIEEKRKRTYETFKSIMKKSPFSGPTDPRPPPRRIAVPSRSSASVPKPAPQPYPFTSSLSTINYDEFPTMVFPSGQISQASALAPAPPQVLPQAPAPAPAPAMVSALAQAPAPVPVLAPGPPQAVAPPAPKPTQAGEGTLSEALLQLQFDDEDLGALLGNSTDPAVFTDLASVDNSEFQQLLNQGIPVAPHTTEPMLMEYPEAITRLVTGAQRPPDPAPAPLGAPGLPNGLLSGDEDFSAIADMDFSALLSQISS

nuclear factor-κB (NF-κB) p65 subunit, human, wild type, sequence (Q04206 whole entry): as the sequence (Q04206 whole entry S536A) above, with A536S counted along it
p65 phosphorylation-deficient mutant S276A, sequence (Q04206 whole entry S276A): as the sequence (Q04206 whole entry S536A) above, with S276A, A536S counted along it

Substance	NF-κB promoter activity [1]	phosphorylation of p65 (Phos-tag PAGE) [1]	NF-κB promoter activity [2]	intensity ratio of PKA-Cβ-induced phosphorylation (Phos-tag PAGE) (p65 mutant S536A)	intensity ratio of PKA-Cβ-induced phosphorylation (Phos-tag PAGE) [2]
PKA-Cβ1, human	Co-transfection with PKA-Cβ1 significantly enhanced the p65-induced NF-κB promoter activity	the overexpression of PKA-Cβ1, the major subtype of Cβ in BEAS-2B cells, induced the phosphorylation of p65, which was inhibited by H89	which was abrogated by co-expressing the S276A mutant of p65	–	–
protein kinase A catalytic subunit β (PKA-Cβ), human	–	–	–	The intensity ratio of PKA-Cβ-induced phosphorylation was decreased in S276A- and S536A-transfected cells compared to the wild-type p65-transfected cells	The intensity ratio of PKA-Cβ-induced phosphorylation was decreased in S276A- and S536A-transfected cells compared to the wild-type p65-transfected cells
